How the values were obtained:
[1] = target: RD1-MART1^HIGH single-chain TCR, yeast-displayed (human); assay: flow cytometry on cells
[2] = target: RD1-MART1 single-chain TCR, yeast-displayed (human); assay: flow cytometry on cells

EC50 [1] | EC50 [2] | Substance
52 nM | > 5000 nM | MART1 ([…])/HLA-A2, refolded biotinylated monomer (from UniProt P61769 21-119) (peptide-MHC)
– | 130 nM | MART1 ([…])/HLA-A2-Ig dimer (from UniProt P61769 21-119) (peptide-MHC)
